Experimental data: patent US20250002528A1 (OXFORD UNIVERSITY INNOVATION, published 2025)

Experiments:
SpyTag-MBP = target: T1, SpyTag-MBP; experiment: ITC, monomeric SpySwitch, pH 7.5, 5 °C; ITC, pH 7.5, 5 C
T1 construct: Fusion of SpyTag and MBP

SpyTag003-MBP = target: T2, SpyTag003-MBP; experiment: as above
T2 construct: Fusion of SpyTag003 and MBP

B1: SpySwitch (designed binder)
chain: MSYYHHHHHHGSGGSGAMVTTLSGLSGEQGPSGDMTTEEDSATHIHFHKHDEDGRELAGATMELRDCSGKTISTWITDGHVKDFYLYPGKYTFVATAAPDGHHVATPIEFTINEDGQVTVDGEATEGDPHTGSSGS
notes: also called SpySwitch resin; monomeric SpySwitch
SpyTag-MBP
  Kd: 1.1 µM
  stoichiometry: 1
SpyTag003-MBP
  Kd: 1.5 µM
  stoichiometry: 1
